The text below walks through data of patent US20260216365A1, “ANTIBODY-DRUG CONJUGATES AGAINST THE RECEPTOR TYROSINE KINASE EPHA5” (Rutgers, The State University of New Jersey, priority 2021, published 2026).

In data set [1] the target is T1, recombinant human EphA5 (rhEphA5) antigen (Homo sapiens, UniProt P54756).
T1 construct: purchased R and D systems 3036-A5
As to the kind of experiment: Biacore multi-cycle kinetic analysis of purified antibodies, 1:1 model. In kind it is binding. The settings on record: for binding to EphA5 relative to the chimeric antibody (VH0/VK0): purified antibodies, multi-cycle kinetics. The protocol:
In order to assess the binding of the six lead humanized variants to rhEphA5 antigen, multi-cycle kinetic analysis (FIG. 68) was performed on purified material. Kinetic experiments were performed at 25° C. on a Biacore T200 running Biacore T200 Control software V2.0.1 and Evaluation software V3.0 (GE Healthcare, Uppsala, Sweden).
HBS-P+ (GE Healthcare, Uppsala, Sweden), supplemented with 1% BSA w/v (Sigma, Dorset, UK) was used as running buffer as well as for ligand and analyte dilutions. Purified lead antibodies were diluted to 0.5 μg/mL in running buffer and at the start of each cycle, loaded onto Fc2, Fc3 and Fc4 of an anti-human IgG CM5 sensor chip (GE Healthcare, Little Chalfont, UK). Antibodies were captured at a flow rate of 10 μl/min to give an immobilization level (RL) of ~50 RU. The surface was then allowed to stabilize.
Multi-cycle kinetic data was obtained using recombinant EphA5 as the analytes injected at a flow rate of 30 μl/min to minimize any potential mass transfer effects. A five point, three-fold dilution range from 1.11 nM to 270 nM of EphA5 was prepared in running buffer. For each concentration, the association phases were monitored for 210 seconds and the dissociation phase was measured for 900 seconds. Regeneration of the sensor chip surface was conducted between cycles using two injections of 3 M MgCl2. Multiple repeats of a blank and of EphA5 were programmed into the kinetic run in order to check the stability of both the surface and analyte over the kinetic cycles.
The signal from the reference channel Fc1 (no IgG captured) was subtracted from that of Fc2, Fc3 and Fc4 to correct for bulk effect and differences in non-specific binding to a reference surface. The signal from each IgG blank run (IgG captured but no antigen) was subtracted to correct for differences in surface stability. The double referenced sensorgrams were fitted with the Langmuir (1:1) binding model where the closeness of fit of the data to the model is evaluated using the Chi square value which describes the deviation between the experimental and fitted (observed and expected) curves. The fitting algorithm seeks to minimize the Chi square value.
A summary of the kinetic constants determined from the 1:1 model fitted curves is shown in FIG. 19 with fitted curves shown in FIG. 20.
A general note: SPR reads the build-up and loss of mass on a sensor chip optically.

The nature of data set [2]: Thermal ramp stability (UNcle, Sypro Orange fluorescence and static light scattering). In kind it is physicochemical. An excerpt: Thermal ramp stability experiments (Tm and Tagg) are well established methods for ranking proteins and formulations for stability. A protein's denaturation profile provides information about its thermal stability and represents a structural ‘fingerprint’ for assessing structural and formulation buffer modifications. A widely used measure of the thermal structural stability of a protein is the temperature at which it unfolds from the native state to a denatured state. For many proteins, this unfolding process occurs over a narrow temperature range and the mid-point of this transition is termed ‘melting temperature’ or ‘Tm’. To determine the melting temperature of a protein, UNcle measures the fluorescence of Sypro Orange (which binds to exposed hydrophobic regions of proteins) as the protein undergoes conformational changes.
Samples for each variant were formulated in PBS and Sypro Orange at a final concentration of 1 mg/mL. 9 μL of each sample mixture was loaded in duplicate into UNi microcuvettes. Samples were subjected to a thermal ramp from 25-95° C., with a ramp rate of 0.3° C./minute and excitation at 473 nm. Full emission spectra were collected from 250-720 nm, and the area under the curve between 510-680 nm was used to calculate the inflection points of the transition curves (Tonset and Tm). Monitoring of static light scattering (SLS) at 473 nm allowed the detection of protein aggregation, and Tagg (onset of aggregation) was calculated from the resulting SLS profiles. Thermal stability values determined lie in a broad range from 57.9 to 69.6° C. (Tm1), 55.1 to 65.2° C. (Tonset) and 65.6 to 70.2° C. (Tagg) with the humanized leads generally showing improved profiles when compared to the chimeric antibody. […] All humanized antibodies appear to have a higher Tm1, Tonset and Tagg compared to the chimeric antibody.

Data set [3] deals with T2, H460 cell line stably expressing EphA5 (Homo sapiens, UniProt P54756).
T2 construct: A H460 cell line stably expressing EphA5 (provided by Rutgers) was used; endogenous in cells; host or cells: H460 human lung carcinoma cells (provided by Rutgers)
T2 sequence (P54756 25-1037): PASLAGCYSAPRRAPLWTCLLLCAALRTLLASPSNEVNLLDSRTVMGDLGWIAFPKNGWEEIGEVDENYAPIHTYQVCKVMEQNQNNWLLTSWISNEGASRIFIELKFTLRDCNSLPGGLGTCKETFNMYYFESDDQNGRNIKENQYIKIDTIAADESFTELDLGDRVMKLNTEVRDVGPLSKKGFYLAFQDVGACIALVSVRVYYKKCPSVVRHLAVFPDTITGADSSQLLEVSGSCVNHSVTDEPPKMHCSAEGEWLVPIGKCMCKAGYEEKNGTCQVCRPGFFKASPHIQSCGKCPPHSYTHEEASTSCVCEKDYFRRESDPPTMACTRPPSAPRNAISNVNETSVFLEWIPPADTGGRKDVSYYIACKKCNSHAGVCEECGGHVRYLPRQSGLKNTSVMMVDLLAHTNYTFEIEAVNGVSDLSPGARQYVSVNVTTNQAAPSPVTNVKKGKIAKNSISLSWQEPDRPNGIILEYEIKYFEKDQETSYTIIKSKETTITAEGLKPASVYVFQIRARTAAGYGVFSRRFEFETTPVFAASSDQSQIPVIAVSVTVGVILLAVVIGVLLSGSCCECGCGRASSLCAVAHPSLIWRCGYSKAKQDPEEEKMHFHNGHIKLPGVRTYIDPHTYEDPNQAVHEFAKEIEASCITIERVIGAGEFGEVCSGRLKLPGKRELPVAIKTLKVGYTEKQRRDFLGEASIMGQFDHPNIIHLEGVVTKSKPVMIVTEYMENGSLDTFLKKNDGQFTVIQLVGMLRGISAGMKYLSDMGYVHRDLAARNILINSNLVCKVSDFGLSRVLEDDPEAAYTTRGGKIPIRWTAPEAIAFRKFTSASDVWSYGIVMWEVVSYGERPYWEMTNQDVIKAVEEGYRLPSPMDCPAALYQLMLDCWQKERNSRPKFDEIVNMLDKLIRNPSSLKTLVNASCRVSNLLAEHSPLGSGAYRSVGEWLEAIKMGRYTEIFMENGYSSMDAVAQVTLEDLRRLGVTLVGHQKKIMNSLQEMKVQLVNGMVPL
Nature of the data set: Flow cytometry analysis of cell binding, EphA5-positive cells. The settings on record: starting 10 μg/ml, four-fold serial dilution, 4° C. 30 minutes. The protocol:
(§1) A H460 cell line stably expressing EphA5 (provided by Rutgers) was used, alongside H226 cells as a negative control, to test for antibody binding in a flow cytometry assay. The cell lines were first assessed for target expression using 10 μg/ml of the murine 11C12 provided by Rutgers) and MolgG1 non-binging control (Biolegend, California, US). Goat anti-mouse Alexa Fluor 647 (Thermo Fisher, Loughborough, UK) was used for antibody detection.
(§2) For cell binding assays, both cell lines were resuspended in FACS buffer (PBS+1% BSA+0.1% sodium azide) and seeded in 96 well U bottom plates at 1×105 (100 μl) cells per well. The chimeric and six purified humanized variants were tested in the assay alongside the 11C12 murine positive control, MolgG1 and HulgG1 non-binding controls. Samples were prepared at a starting concentration of 10 μg/ml in FACS buffer and underwent a four-fold seven point serial dilution for testing with H460 cells and a three-fold three point serial dilution for the H226 cells. […] Median fluorescence intensity (MFI) was measured using an Attune NxT Flow Cytometer (Thermo Fisher, Loughborough, UK) and 10,000 gated events were acquired per sample. For data analysis, live cell populations were gated based on the forward and side scatter dot plot allowing the Alexa Fluor 647 MFI values to be measured in the RL1 channel.
For orientation: Flow cytometry measures light scatter and fluorescence of single cells or particles in a stream.

Another data set deals with H226 cells (EphA5−). As to the kind of experiment: Flow cytometry analysis of cell binding, EphA5-negative control cells. Further details: species or system human. The settings on record: starting 10 μg/ml, three-fold serial dilution. The protocol: as §1, §2

Residue numbers refer to the chain shown, from its start. Several values for one entry are separate records, joined by “and”; a condition that tells them apart may be missing. Equal values may be shown once.

T1 sequence (P54756 25-573 limits assumed): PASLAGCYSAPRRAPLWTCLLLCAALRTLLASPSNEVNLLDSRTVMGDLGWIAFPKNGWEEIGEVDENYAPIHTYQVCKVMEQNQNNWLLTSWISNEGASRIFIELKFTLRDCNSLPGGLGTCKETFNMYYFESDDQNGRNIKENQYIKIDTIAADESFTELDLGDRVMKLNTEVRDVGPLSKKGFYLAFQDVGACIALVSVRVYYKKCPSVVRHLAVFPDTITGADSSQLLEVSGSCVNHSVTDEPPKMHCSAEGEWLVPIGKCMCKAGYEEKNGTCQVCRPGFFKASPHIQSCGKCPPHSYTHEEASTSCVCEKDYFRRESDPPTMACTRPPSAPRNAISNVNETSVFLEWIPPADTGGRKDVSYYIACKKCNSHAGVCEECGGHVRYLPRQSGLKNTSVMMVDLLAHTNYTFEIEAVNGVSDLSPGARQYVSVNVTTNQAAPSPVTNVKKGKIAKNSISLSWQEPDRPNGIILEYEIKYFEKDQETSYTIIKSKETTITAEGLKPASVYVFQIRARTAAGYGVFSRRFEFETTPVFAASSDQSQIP

B1: VH5/VK4: humanized anti-EphA5 IgG1/kappa antibody; VH SEQ ID NO:6, VL SEQ ID NO:12 (antibody, V domains shown)
VH: EVQLVESGGGLVQPGGSLKLSCAASGFTFSTFGIHWVRQAPGKGLEWVAYISGASTTIYYADSVKGRFTISRDNSKNTLYLQMNSLRAEDTAVYYCARYGTSFPYGLDYWGQGTLVTVSS
VL: DIVMTQSPDSLAVSLGERATINCKSSQSVDYDGDSYMNWYQQKPGKAPKLLIYGASNLESGIPDRFSGSGSGTDFTLTISRLEPEDAASYYCQQSNEDPFTFGQGTKLEIK
For the molecule B1, the “binding to EphA5 relative to the chimeric antibody (VH0/VK0)” value in data set [1] was “within two-fold of the chimeric antibody”. Moreover, in data set [2] (among the chimeric and six lead humanized variants), the “ranking by Tagg (SLS profiles)” value was “highest Tagg values”.

B2: VH5/VK2: humanized anti-EphA5 IgG1/kappa antibody; VH SEQ ID NO:6, VL SEQ ID NO:10 (antibody, V domains shown)
VH: B1 VH
VL: B1 VL with S25A
As to B2, in data set [1], the “binding to EphA5 relative to the chimeric antibody (VH0/VK0)” value was “within two-fold of the chimeric antibody”.

B3: VH0/VK0: chimeric anti-EphA5 antibody, murine 11C12 variable regions (VH SEQ ID NO:1, VL SEQ ID NO:8), human IgG1/kappa constant regions (antibody, V domains shown)
VH: EVTLKESGGGLVQPGGSRKLSCAASGFTFSTFGIHWVRQAPEKGLEWVAYISGASTTIYYADTVKGRFTISRDNPKNTLFLQMTSLRSEDTAMYYCARYGTSFPYGLDYWGQGTSVTVSS
VL: DIVMTQSPGSLAVSLGQRATISCKASQSVDYDGDSYMNWYQQKPGQPPKLLIYGASNLESGIPARFSGSGSGTDFTLNIHPVEEEDAASYYCQQSNEDPFTFGSGTKLEIK
modifications: human IgG1/kappa constant regions without entry
Consider B3, for which the “kd” value in data set [1] (Biacore T200, 25° C., IgG captured on anti-human IgG chip) was 0.0015 s⁻¹. Also, the RMAX in data set [1] (fitted 1:1 model) is listed as 47.8. Also, in data set [2] (average of duplicates), the “Average Tm2 (° C.)” value came out at 65.83 °C and the “Average Tonset (° C.)” value came to 55.1 °C. The “Average Tm1 (° C.)” value in data set [2] (average of duplicates, 1 mg/mL in PBS) is 57.9 °C. For the same molecule, the “Average Tagg 473 (° C.)” value in data set [2] (average of duplicates, SLS at 473 nm) was 65.6 °C. Moreover, in data set [2] (single replicate), the “Tonset (° C.)” value was 54.92 °C and 55.23 °C. Further, the “Tm2 (° C.)” value in data set [2] (single replicate, 1 mg/mL in PBS) was found to be 65.83 °C. For the same molecule, in data set [2] (single replicate, 1 mg/mL in PBS, ramp 25-95° C.), the “Tm1 (° C.)” value was 57.83 °C and 57.87 °C. Also, the “Tagg 473 (° C.)” value in data set [2] (single replicate, SLS at 473 nm) is 65.72 °C and 65.60 °C. In data set [2] (thermal ramp 25-95° C.), the “number of thermal transitions detected” value is on record as “two transitions”.

B4: VH3/VK4: humanized anti-EphA5 IgG1/kappa antibody; VH SEQ ID NO:4, VL SEQ ID NO:12 (antibody, V domains shown)
VH: B1 VH with S63T, A88S, V93M
VL: B1 VL
With B4, the “binding to EphA5 relative to the chimeric antibody (VH0/VK0)” value in data set [1] is recorded as “within two-fold of the chimeric antibody”.

B5: 11C12: anti-human EphA5 monoclonal murine antibody, parental antibody and positive control (antibody, V domains shown)
VH: B3 VH
VL: B3 VL
For B5, in data set [3], the “binding to H460 (EphA5+) cells, MFI dose response” value is listed as “bound to the positive cell line in a concentration dependent manner”. Moreover, the “binding to H226 (EphA5−) cells” value in the data set with H226 cells (EphA5−) is given as “no binding”.

B6: VH4/VK4: humanized anti-EphA5 IgG1/kappa antibody; VH SEQ ID NO:5, VL SEQ ID NO:12 (antibody, V domains shown)
VH: B1 VH with S63T
VL: B1 VL
For the molecule B6, the “binding to EphA5 relative to the chimeric antibody (VH0/VK0)” value in data set [1] is “within two-fold of the chimeric antibody”.
